± gives the standard deviation of the averaged measurements.
System: Saccharomyces cerevisiae
Assay: protein stability index of tFT-peptide fusion (C-terminal peptide) (PSI (0-1 scale)); higher = more stable (slower turnover)
Conditions: temperature: 30 C
Experimental: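 MPS profiling in S. cerevisiae of the yeast C-terminome library: the last 12 aa of each annotated ORF are fused to the C-terminus of a sfGFP-mCherry timer, after a GGGS linker. Cells are FACS-sorted into 8 mCherry/sfGFP bins and deep-sequenced. PSI runs from 0 (unstable) to 1 (stable); wild type and das1Δ backgrounds, two technical replicates each.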

[1] = genetic background: das1 deletion

## SGDIVAVIETLA [DUR12 C-terminal 12 aa]
[1]
  protein stability index: 0.51 ± 0.033
Genetic background: wild type
  protein stability index: 0.571 ± 0.049

## EEARQEKSGQES [CRZ1 C-terminal 12 aa]
[1]
  protein stability index: 0.678 ± 0.048
Genetic background: wild type
  protein stability index: 0.659 ± 0.011

## HELESINSGGAW [YMR31 C-terminal 12 aa]
[1]
  protein stability index: 0.702 ± 0.0072
Genetic background: wild type
  protein stability index: 0.689 ± 0.0016

## KDAFLKELGLQN [PRD1 C-terminal 12 aa]
[1]
  protein stability index: 0.69 ± 0.013
Genetic background: wild type
  protein stability index: 0.678 ± 0.028

## TEIDESFEMTDF [KEX1 C-terminal 12 aa]
[1]
  protein stability index: 0.723 ± 0.021
Genetic background: wild type
  protein stability index: 0.7471 ± 0.0064

## AYETLTGSKWSH [ADE1 C-terminal 12 aa]
[1]
  protein stability index: 0.704 ± 0.01
Genetic background: wild type
  protein stability index: 0.704 ± 0.015

## ENVLNKEGVLQK [GIN4 C-terminal 12 aa]
[1]
  protein stability index: 0.682 ± 0.012
Genetic background: wild type
  protein stability index: 0.734 ± 0.047

## SIDKWFFISGSV [IPP1 C-terminal 12 aa]
[1]
  protein stability index: 0.726 ± 0.013
Genetic background: wild type
  protein stability index: 0.709 ± 0.0086

## NNRYKNFSPKRL [YHR071C-A C-terminal 12 aa]
[1]
  protein stability index: 0.746 ± 0.011
Genetic background: wild type
  protein stability index: 0.683 ± 0.034

## YSIEVVPHGLIA [GLO1 C-terminal 12 aa]
[1]
  protein stability index: 0.607 ± 0.0097
Genetic background: wild type
  protein stability index: 0.5946 ± 0.0015

## VGVERLLNDRFR [ARP4 C-terminal 12 aa]
[1]
  protein stability index: 0.6944 ± 0.0026
Genetic background: wild type
  protein stability index: 0.695 ± 0.028

## GGLHFHGESFAL [FRE8 C-terminal 12 aa]
[1]
  protein stability index: 0.699 ± 0.0096
Genetic background: wild type
  protein stability index: 0.712 ± 0.036

## KKKSQNKSRKDD [PBR1 C-terminal 12 aa]
[1]
  protein stability index: 0.7005 ± 0.0067
Genetic background: wild type
  protein stability index: 0.691 ± 0.069

## KKLAKSGIEFKW [NOP15 C-terminal 12 aa]
[1]
  protein stability index: 0.704 ± 0.018
Genetic background: wild type
  protein stability index: 0.684 ± 0.063

## VPRFKDIFDDLS [DOA1 C-terminal 12 aa]
[1]
  protein stability index: 0.7313 ± 0.0058
Genetic background: wild type
  protein stability index: 0.719 ± 0.0078

## QIIYYIARSKGL [MEC3 C-terminal 12 aa]
[1]
  protein stability index: 0.665 ± 0.058
Genetic background: wild type
  protein stability index: 0.668 ± 0.035

## TNVQANSYRKVP [SDP1 C-terminal 12 aa]
[1]
  protein stability index: 0.6856 ± 0.0029
Genetic background: wild type
  protein stability index: 0.522 ± 0.054

## EELQGNARALNN [SNN1 C-terminal 12 aa]
[1]
  protein stability index: 0.6962 ± 0.0046
Genetic background: wild type
  protein stability index: 0.69 ± 0.019

## DFSKFKDSRLYD [YND1 C-terminal 12 aa]
[1]
  protein stability index: 0.688 ± 0.034
Genetic background: wild type
  protein stability index: 0.671 ± 0.01

## GALVGYTIGAYI [GPI11 C-terminal 12 aa]
[1]
  protein stability index: 0.666 ± 0.015
Genetic background: wild type
  protein stability index: 0.673 ± 0.055

## RKRKQSKSGLLL [NOP8 C-terminal 12 aa]
[1]
  protein stability index: 0.723 ± 0.024
Genetic background: wild type
  protein stability index: 0.699 ± 0.01

## ENNDNDDNDGLF [CTR9 C-terminal 12 aa]
[1]
  protein stability index: 0.707 ± 0.037
Genetic background: wild type
  protein stability index: 0.701 ± 0.048

## QGQKFIHDNNTN [YMR245W C-terminal 12 aa]
[1]
  protein stability index: 0.673 ± 0.031
Genetic background: wild type
  protein stability index: 0.646 ± 0.018

## VLGDCQHVTSLL [HST4 C-terminal 12 aa]
[1]
  protein stability index: 0.697 ± 0.015
Genetic background: wild type
  protein stability index: 0.7204 ± 0.0067

## IIQSYINLLEEN [NKP2 C-terminal 12 aa]
[1]
  protein stability index: 0.708 ± 0.017
Genetic background: wild type
  protein stability index: 0.756 ± 0.059

## VLVFSWRHIFCF [YJL120W C-terminal 12 aa]
[1]
  protein stability index: 0.467 ± 0.026
Genetic background: wild type
  protein stability index: 0.179 ± 0.0033

## NVTGSANNGTHI [SVS1 C-terminal 12 aa]
[1]
  protein stability index: 0.708 ± 0.032
Genetic background: wild type
  protein stability index: 0.671 ± 0.016

## NDEEKQALAEKA [YLR297W C-terminal 12 aa]
[1]
  protein stability index: 0.683 ± 0.011
Genetic background: wild type
  protein stability index: 0.6834 ± 0.0067

## HTSSKEIDLLSF [ENT3 C-terminal 12 aa]
[1]
  protein stability index: 0.721 ± 0.026
Genetic background: wild type
  protein stability index: 0.7104 ± 0.0067

## LMRRFVLEFEKQ [SEC6 C-terminal 12 aa]
[1]
  protein stability index: 0.716 ± 0.0098
Genetic background: wild type
  protein stability index: 0.726 ± 0.021

## NKVDINMEQEKF [UGO1 C-terminal 12 aa]
[1]
  protein stability index: 0.699 ± 0.043
Genetic background: wild type
  protein stability index: 0.651 ± 0.027

## IMPDRFDYENYY [TMS1 C-terminal 12 aa]
[1]
  protein stability index: 0.739 ± 0.0052
Genetic background: wild type
  protein stability index: 0.698 ± 0.0097

## GKRRMNPGPSVQ [RPS30A C-terminal 12 aa]
[1]
  protein stability index: 0.696 ± 0.0085
Genetic background: wild type
  protein stability index: 0.6758 ± 0.0052

## TSPKESFFKEVI [LPX2 C-terminal 12 aa]
[1]
  protein stability index: 0.715 ± 0.03
Genetic background: wild type
  protein stability index: 0.711 ± 0.022

## IDDINNDKWLVI [PSK1 C-terminal 12 aa]
[1]
  protein stability index: 0.725 ± 0.001
Genetic background: wild type
  protein stability index: 0.688 ± 0.041

## VGGIDYIKEFLS [CDA2 C-terminal 12 aa]
[1]
  protein stability index: 0.7012 ± 0.0019
Genetic background: wild type
  protein stability index: 0.264 ± 0.0041

## PSPGFHMYGCHT [YLR156W C-terminal 12 aa]
[1]
  protein stability index: 0.708 ± 0.022
Genetic background: wild type
  protein stability index: 0.695 ± 0.0084

## LEKLLKTVLNTL [ORC2 C-terminal 12 aa]
[1]
  protein stability index: 0.69009 ± 0.00049
Genetic background: wild type
  protein stability index: 0.696 ± 0.028

## RKLFLVVKDNIL [JIP3 C-terminal 12 aa]
[1]
  protein stability index: 0.695 ± 0.016
Genetic background: wild type
  protein stability index: 0.734 ± 0.015

## DSVEMKFDKLNI [RBS1 C-terminal 12 aa]
[1]
  protein stability index: 0.6821 ± 0.0029
Genetic background: wild type
  protein stability index: 0.748 ± 0.085

## SGSVYIGSVFLI [YGR121W-A C-terminal 12 aa]
[1]
  protein stability index: 0.692 ± 0.029
Genetic background: wild type
  protein stability index: 0.6421 ± 0.0012

Reference: the supplement of paper PMC10724198
